In patent US20230265198A1 (TWIST BIOSCIENCE, published 2023):
Numbering of substitutions follows the chain as printed.

B1: NRP1-62 (VHH)
VHH: EVQLVESGGGLVQPGGSLRLSCAASGSSLSNYTMGWFRQAPGKERELVATIWWTVGAPYYADSVKGRFTISADNSKNTAYLQMNSLKPEDTAVYYCAAYQRGWGDWGQGTLVTVSS
B2: NRP1-43 (VHH)
VHH: EVQLVESGGGLVQPGGSLRLSCAASGYFASWYYMGWFRQAPGKEREWVATIYSPSGSAVYADSVKGRFTISADNSKNTAYLQMNSLKPEDTAVYYCARDSFYDGSGYSPWGQGTLVTVSS
B3: NRP1-44 (VHH)
VHH: EVQLVESGGGLVQPGGSLRLSCAASGRSFSTYIMGWFRQAPGKERELVARITSGGYTYADSVKGRFTISADNSKNTAYLQMNSLKPEDTAVYYCAADVSPSYGSRWYWGQGTLVTVSS
B4: NRP1-70 (VHH)
VHH: EVQLVESGGGLVQPGGSLRLSCAASGDTFSRYTMGWFRQAPGKEREFVATIWWTFDAPYYADSVKGRFTISADNSKNTAYLQMNSLKPEDTAVYYCAARSPMSPTWDWGQGTLVTVSS
B5: NRP1-297 (antibody, IgG2, V domains shown)
VH: EVQLLESGGGLVQPGGSLRLSCAASGFTFGRYAMSWVRQAPGKGLEWVSSISGSGGSTYYTDSVKGRFTISRDNSKNTLYLQMNSLRAEDTAVYYCVRALAGRRDHWGQGTLVTVSS
VL: DIQMTQSPSSLSASVGDRVTITCRTSQRISTSLNWYQQKPGKAPKLLIYGASNLQSGAPSRFSGSGSGTDFTLTISSLQPEDFATYYCQQSYFTPITFGGGTKVEIK
B6: NRP1-27 (VHH)
VHH: EVQLVESGGGLVQPGGSLRLSCAASGFRFGDYPMGWFRQAPGKEREFVSAISWSGGSTVYADSVKGRFTISADNSKNTAYLQMNSLKPEDTAVYYCALGPVRRSRLEWGQGTLVTVSS
B7: NRP1-53 (VHH)
VHH: EVQLVESGGGLVQPGGSLRLSCAASGRTFNRYPMGWFRQAPGKEREWVAAITPQGVPNYADSVKGRFTISADNSKNTAYLQMNSLKPEDTAVYYCAIHTSREIWGQGTLVTVSS
B8: NRP1-58 (VHH)
VHH: B7 VHH with A50G, T52N, P53S, Q54G, V56G, P57T, N58W

target: neuropilin-1 (NRP1) on HEK293 cells overexpressing NRP1 (UniProt O14786); assay: flow cytometry, HEK293-NRP1 vs HEK293

100 nM FACS (MFI Ratio) | Binder
1.5 | B1
1.5 | B2
1.6 | B3
1.9 | B4
1.6 | B5
2.1 | B6
1.9 | B7
1.9 | B8

target: neuropilin-1 (NRP1), analyte in SPR (UniProt O14786 22-644, limits assumed); assay: SPR, Carterra LSA, antibody coupled
Experimental: SPR experiments were performed on a Carterra LSA SPR biosensor equipped with a HC30M chip at 25° C. in HBS-TE. Antibodies were diluted to 10 μg/mL and amine-coupled to the sensor chip by EDC/NHS activation, followed by ethanolamine HCl quenching. Increasing concentrations of analyte were flowed over the sensor chip in HBS-TE with 0.5 mg/mL BSA with 5-minute association and 15-minute dissociation. Following each injection cycle the surface was regenerated with 2× 30-second injections of IgG elution buffer (Thermo). Data were analyzed in Carterra's Kinetics Tool software with 1:1 binding model.

binding result | Binder
no binding | B6
